Substrate in this data set: OC[C@H]1O[C@@](CO)(O[C@H]2O[C@H](CO)[C@@H](O)[C@H](O)[C@H]2O)[C@@H](O)[C@@H]1O
Put plainly: cells, lysate or membranes. To be noted: pH 5.6, Na Ringer, membrane potential -117 mV, H+ symport.

B1: OsSUT1 (Oryza sativa Japonica Group) (protein)
chain: MARGSGAGGGGGGGGGGLELSVGVGGGGGARGGGGGEAAAAVETAAPISLGRLILSGMVAGGVQYGWALQLSLLTPYVQTLGLSHALTSFMWLCGPIAGMVVQPCVGLYSDRCTSKWGRRRPYILTGCVLICLAVVVIGFSADIGYAMGDTKEDCSVYHGSRWHAAIVYVLGFWLLDFSNNTVQGPARALMADLSGRHGPGTANSIFCSWMAMGNILGYSSGSTNNWHKWFPFLKTRACCEACANLKGAFLVAVIFLSLCLVITLIFAKEVPFKGNAALPTKSNEPAEPEGTGPLAVLKGFRNLPTGMPSVLIVTGLTWLSWFPFILYDTDWMGREIYHGDPKGTDPQIEAFNQGVRAGAFGLLLNSIVLGFSSFLIEPMCRKVGPRVVWVTSNFLVCIAMAATALISFWSLKDFHGTVQKAITADKSIKAVCLVLFAFLGVPLAVLYSVPFAVTAQLAATRGGGQGLCTGVLNISIVIPQVVIALGAGPWDELFGKGNIPAFGLASGFALIGGVAGIFLLPKISKRQFRSVSMGGGH
Regarding B1, the K0.5 was 7.50 mM.

B2: OsSUT5 (Oryza sativa Japonica Group) (protein)
chain: MEEGRRGDREGKSAAGWTALSTTKTTLEEKRRLQANGSVGGDAGTSGFRRIVRLFFACMVAGGIQYGWALQLSLLSPYSQTLGISHSYVSLTWICGPIAGFVVQPIVGYYSDRCTMKMGRRRPFILVGCLIICISVMIIGFSADIGRHLGDTKEHCSTYTGPRWSAAMVYIVGFWFLDFANNTVQGPARAMMADLSAGHHGPNVGQSIFSLWMAIGSVLGYLSGANGKWHEWFPWLKTAACCDACANLKGAFFTAVLLIVVSMTVTMYLADEMPLDKQDVDTSGGGGCAVFVDLFKSLRNLPPAMFKVLAVTAVTWLSWFPFIQYNTDWMGREIYHGEPQGTAAKADVYDAGVREGAMGLLFCSVALGVTSFVIPKLCRRLTSKVVWSISNFLVFALMAVMVAVGMVSMRGYRPSLAAGLTGPDPTLKAVALVVFALIGIPQAVLFSVPWAVASEVTAEEGGGQGLAIGVLNIAIVVPQLVIALTAGPIDGAFNKGNTPAFGIGGAFAFICGVLALIWLPKTRGVSNAAVVAGGH
For B2, the K0.5 came to 2.32 mM.

The values above are taken from article PMC2807175.
